Measurements published in article PMC7484505.
Blank lines part the entries; values can stand above or below the substance they belong to.

Columns and labels:
hNav1.7/A1632E (human) = hNav1.7/A1632E (human) (UniProt Q15858)
[1] = target: hNav1.7/A1632E^His-StrepII (human) (UniProt Q15858)
hNav1.7^GFP (human) = hNav1.7^GFP (human) (UniProt Q15858)

maximal relative persistent current of hNav1.7/A1632E in HEK293T cells (patch clamp), without against with co-expressed difopein (hNav1.7/A1632E (human)): 13.2%
Substance: hNav1.7/A1632E (from UniProt Q15858-3 1-1977) (natural protein)

maximal relative persistent current of hNav1.7/A1632E in X. laevis oocytes (TEVC), without against with co-injected difopein cRNA [1]: -13.6%
Substance: hNav1.7/A1632E^His-StrepII (from UniProt Q15858-3 1-1977) (natural protein)

peak current density (whole-cell patch clamp) of the Nav1.7 stable HEK cell line (untagged hNav1.7/WT) on co-expression of hNav1.7/R896Q, against the stable line alone (hNav1.7^GFP (human)): 31%
Substance: hNav1.7/R896Q (from UniProt Q15858-3 1-1977) (natural protein)
